System: HPV16
Assay: HPV16 PsV infection of HaCaT cells, luciferase assay
Type: cell-based, human papillomavirus
Experimental: FIG. 2. […] (A, B) Immunoblot for syndecan-1 (polyclonal syndecan-1 Ab) after 24 hours at 37° C. in CM (A) or post starvation in SFM and after six hours at 37° C. in Tyrode's Buffer (B); immunoblot for HPV16 L1 released into CM post virus binding for indicated times (C) or 24 hours (E). […] Cells were untreated (U) or pre-treated with BM or MM for one hour, then exposed to HPV16 PsV in the presence of inhibitors in CM. Infection was assayed by quantifying luciferase levels at 24 hours p.i. (F). Data are represented as mean±SEM of three experiments. (G-H) IC50 of HPV16 infectivity inhibition by MMIP inhibitors batimastat and mariniastat. […] HPV16 infection was measured with luciferase assay. […]
FIG. 7. […] Cells were exposed to HPV16 PsV at 100 vge/cell for one hour at 4° C., then washed extensively and shifted to 37° C. in the presence of the indicated inhibitor in CM for 24 hours at which time they were analyzed for luciferase expression. […] (B-C) EGFR knockdown was accomplished using siRNA to EGFR and the percent of EGFR protein remaining in EGFR-siRNA transfected HaCaT cells was determined by immunoblot and compared by densitometry to EGFR levels in cells transfected with a negative control siRNA at 48 hours post transfection. Four separate transfections were analyzed (B) and HPV16 PsV infection levels were measured at 24 hours post infection (48 hours post transfection) in each (C). […]

B1: TIMP3: blocks MMP activity (protein, UniProt P35625 24-211, looked up)
Metalloproteinase inhibitor 3: CTCSPSHPQDAFCNSDIVIRAKVVGKKLVKEGPFGTLVYTIKQMKMYRGFTKMPHVQYIHTEASESLCGLKLEVNKYQYLLTGRVYDGKMYTGLCNFVERWDQLTLSQRKGLNYRYHLGCNCKIKSCYYLPCFVTSKNECLWTDMLSNFGYPGYQSKHYACIRQKGGYCSWYRGWAPPDKSIINATDP
CM, luciferase 24 hours p.i.
  HPV16 infection of HaCaT cells (in words): can prevent HPV16 infection

B2: KGF: keratinocyte growth factor, GFR ligand (protein, UniProt P21781 32-194, looked up)
Fibroblast growth factor 7: CNDMTPEQMATNVNCSSPERHTRSYDYMEGGDIRVRRLFCRTQWYLRIDKRGKVKGTQEMKNNYNIMEIRTVAVGIVAIKGVESEFYLAMNKEGKLYAKKECNEDCNFKELILENHYNTYASAKWTHNGGEMFVALNQKGIPVRGKKTKKEQKTAHFLPMAIT
serum-starved HaCaT, HPV16 bound in SFM, 24 hours in SFM plus factor, compared to CM
  restoration of HPV16 infectivity in SFM by added factor: partially restore infection levels

From patent US20120114639A1, “COMPOSITIONS AND METHODS FOR INHIBITING VIRAL AND/OR BACTERIAL INFECTIONS” (priority 2010, published 2012)
